Data: patent publication US8663912B2, “Fluorogenic substrate for ADAMTS13” (Washington University, priority 2011, dated 2014)
* marks the point of attachment. X1 = CC1(C)C(/C=C/C2=C(Cl)C(=C/C=C3/N(CCCCCC(=O)*)c4ccc5cc(S(=O)(=O)O)ccc5c4C3(C)C)/CCC2)=[N+](CCCS(=O)(=O)[O-])c2ccc(N(CCCS(=O)(=O)O)CCCS(=O)(=O)O)cc21; X2 = CC(C)(C)c1cc(/C=C/C=C2\N(CCCS(=O)(=O)O)c3ccc(S(=O)(=O)O)cc3C2(C)CCCC(=O)CCN2C(=O)CC(*)C2=O)c2ccc(N(CCCS(=O)(=O)[O-])CCCS(=O)(=O)O)cc2[o+]1

Experiment: Solubility of substrate in water
Type: physicochemical
Settings: sodium salt
From the text: The present inventors have tested several combinations of donor and quencher groups chosen for lack of interference from blood proteins. For example, modification at Cys^1610 with Alexa Fluor 594 maleimide (abs 590 nm, em 617 nm, ε 96,000) and at N-terminal. […] In one embodiment, a substrate of the present teachings is modified at Cys^1610 with DyLight 633-maleimide (Thermo, abs 638 nm, em 658 nm, ε 170,000), and at N-terminal Gly with IRDye QC-1 N-hydroxysuccinimidyl ester (LI-COR, abs 737 nm, ε 96,000). […] After RP-HPLC purification the doubly-labeled substrate (FRETS-rVWF71) is soluble at >50 μM.
In these experiments, DyLight 633 maleimide (Thermo Scientific, Waltham, Mass.) 1 mg/100 μL in dimethyl sulfoxide (DMSO) was added dropwise with stirring to peptide VWF71 (10 mg) in ≦2 mL of 100 mM sodium phosphate, pH 7.1, in the dark, and stirred overnight at room temperature. The product DyLight 633-rVWF71 was purified by HPLC on C18 using the TEAA/acetonitrile solvent system as described for the purification of VWF71. DyLight 633-rVWF71 was lyophilized and desalted on a small column of PD-10 in ≦2 mL of 100 mM sodium phosphate, pH 7.9. IRDye QC-1 N-hydroxysuccinimide ester 0.5 mg in 100 μL DMSO was added dropwise with stirring and the solution was stirred overnight at room temperature protected from light. […]

X1-GQAPNLVYMVTGC(X2)PASDEIRRLPGDIQVVPIGVGPNANVQELERIGWPNAPILIQDFETLPREAPDLVLQR [FRETS-rVWF71]
solubility: > 250 µM
